Source: article doi:10.1101/2021.11.04.467245 (bioRxiv, 2021)
Where a chain is given by its changes, count along the chain named. In names and notes the source's numbering stands. Each block holds one binder with its values, some of them ahead of it.

Key:
[1] = target: T1, TwinStrep-BICD2 WT (mouse), Q921C5; test: SEC-MALS; settings: remark: other sources report otherwise
T1 chain: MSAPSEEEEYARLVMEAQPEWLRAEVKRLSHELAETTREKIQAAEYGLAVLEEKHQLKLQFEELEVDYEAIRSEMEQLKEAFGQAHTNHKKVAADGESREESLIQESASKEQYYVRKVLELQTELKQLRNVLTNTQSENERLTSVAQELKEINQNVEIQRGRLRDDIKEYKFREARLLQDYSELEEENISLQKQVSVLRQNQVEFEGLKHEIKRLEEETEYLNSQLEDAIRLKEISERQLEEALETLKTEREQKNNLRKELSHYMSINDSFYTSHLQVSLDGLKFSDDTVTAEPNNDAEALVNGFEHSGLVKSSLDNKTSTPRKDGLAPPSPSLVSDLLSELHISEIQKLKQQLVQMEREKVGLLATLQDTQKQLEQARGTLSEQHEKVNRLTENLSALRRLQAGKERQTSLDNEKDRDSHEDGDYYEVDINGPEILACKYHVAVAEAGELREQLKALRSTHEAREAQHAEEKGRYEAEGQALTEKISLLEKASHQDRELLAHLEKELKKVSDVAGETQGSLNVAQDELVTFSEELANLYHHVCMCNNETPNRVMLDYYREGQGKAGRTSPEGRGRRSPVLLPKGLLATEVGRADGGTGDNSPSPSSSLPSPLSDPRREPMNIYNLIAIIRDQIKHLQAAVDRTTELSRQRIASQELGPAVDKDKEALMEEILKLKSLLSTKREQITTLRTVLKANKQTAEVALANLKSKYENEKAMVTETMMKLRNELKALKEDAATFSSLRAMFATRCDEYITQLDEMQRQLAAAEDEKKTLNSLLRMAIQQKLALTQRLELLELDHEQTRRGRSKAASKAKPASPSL

SEC-MALS = target: the molecule itself; test: SEC-MALS

stoichiometry N [1]: 2
B1: TwinStrep-BICD2 WT, Q921C5 1-820 (natural protein)
chain: T1 chain

B2: TwinStrep-BICD2 S102D (natural protein)
chain: T1 chain with S102D
stoichiometry N (SEC-MALS): 2
